The assay deals with SBF (^FLAGSwi4-Swi6 complex) (S. cerevisiae, UniProt P25302 1-1093; P09959 1-803). The experiment in a line: pull-down.
Chain of SBF (^FLAGSwi4-Swi6 complex) (P25302 whole entry, chain 1 of 2): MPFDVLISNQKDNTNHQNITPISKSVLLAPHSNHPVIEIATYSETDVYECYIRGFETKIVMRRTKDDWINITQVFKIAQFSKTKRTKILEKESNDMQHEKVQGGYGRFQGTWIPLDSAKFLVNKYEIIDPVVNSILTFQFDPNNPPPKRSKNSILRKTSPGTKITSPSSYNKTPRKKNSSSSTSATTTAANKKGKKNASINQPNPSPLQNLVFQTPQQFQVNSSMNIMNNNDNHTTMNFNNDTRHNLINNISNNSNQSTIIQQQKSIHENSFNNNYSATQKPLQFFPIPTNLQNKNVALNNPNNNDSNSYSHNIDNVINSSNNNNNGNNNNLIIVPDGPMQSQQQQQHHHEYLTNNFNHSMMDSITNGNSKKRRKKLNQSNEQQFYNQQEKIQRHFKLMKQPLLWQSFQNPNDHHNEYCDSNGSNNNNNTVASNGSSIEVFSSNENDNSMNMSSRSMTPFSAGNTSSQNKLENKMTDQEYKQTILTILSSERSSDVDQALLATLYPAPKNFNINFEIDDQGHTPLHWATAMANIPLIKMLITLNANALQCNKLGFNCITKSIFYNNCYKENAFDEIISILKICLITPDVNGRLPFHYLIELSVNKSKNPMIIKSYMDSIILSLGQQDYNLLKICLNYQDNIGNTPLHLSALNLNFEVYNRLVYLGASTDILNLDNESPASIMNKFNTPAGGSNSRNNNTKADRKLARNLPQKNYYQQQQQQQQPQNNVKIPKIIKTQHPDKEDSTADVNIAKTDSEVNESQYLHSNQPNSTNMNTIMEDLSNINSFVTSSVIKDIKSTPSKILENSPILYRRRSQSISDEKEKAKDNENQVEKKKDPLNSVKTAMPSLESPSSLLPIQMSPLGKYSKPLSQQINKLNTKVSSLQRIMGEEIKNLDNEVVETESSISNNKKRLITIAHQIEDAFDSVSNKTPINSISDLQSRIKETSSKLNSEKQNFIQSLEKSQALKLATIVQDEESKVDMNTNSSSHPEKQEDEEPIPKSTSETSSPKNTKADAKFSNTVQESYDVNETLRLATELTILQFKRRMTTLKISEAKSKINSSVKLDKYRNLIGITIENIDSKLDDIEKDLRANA
Chain of SBF (^FLAGSwi4-Swi6 complex) (P09959 whole entry, chain 2 of 2): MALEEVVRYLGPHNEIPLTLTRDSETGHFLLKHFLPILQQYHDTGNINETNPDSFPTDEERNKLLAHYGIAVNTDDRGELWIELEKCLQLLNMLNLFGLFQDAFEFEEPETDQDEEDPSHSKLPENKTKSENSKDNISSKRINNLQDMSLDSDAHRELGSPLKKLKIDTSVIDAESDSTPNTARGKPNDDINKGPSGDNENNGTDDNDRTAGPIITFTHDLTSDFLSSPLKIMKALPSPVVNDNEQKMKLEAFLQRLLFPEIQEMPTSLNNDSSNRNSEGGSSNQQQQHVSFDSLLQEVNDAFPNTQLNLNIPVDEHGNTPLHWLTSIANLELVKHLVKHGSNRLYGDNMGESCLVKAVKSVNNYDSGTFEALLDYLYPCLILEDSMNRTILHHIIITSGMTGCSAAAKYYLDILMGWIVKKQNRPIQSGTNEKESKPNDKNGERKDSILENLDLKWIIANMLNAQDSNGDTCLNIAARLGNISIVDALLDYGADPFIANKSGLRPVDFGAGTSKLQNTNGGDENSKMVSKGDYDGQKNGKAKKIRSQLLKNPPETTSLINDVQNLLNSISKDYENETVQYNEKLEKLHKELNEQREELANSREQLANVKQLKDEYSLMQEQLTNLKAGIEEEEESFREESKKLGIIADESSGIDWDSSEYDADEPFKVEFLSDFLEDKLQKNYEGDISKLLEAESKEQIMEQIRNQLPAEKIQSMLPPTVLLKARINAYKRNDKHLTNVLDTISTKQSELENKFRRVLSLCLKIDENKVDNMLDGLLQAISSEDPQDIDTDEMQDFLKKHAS

B1: ^GSTWhi5 (recombinant) (natural protein, S. cerevisiae, UniProt Q12416 1-295, looked up)
chain: MSLRTPKRSRTSDEQEQEQEQEQVQNPDTHVNNEHQQRPGPTTLLSTPVRLKNGFGTPSPPSPPGITKSITKSRRRPSTTSLQGIFMSPVNKRRVGITAHGRVYDHNDDGHESESEDDENEEENENQKKYDGHVSMPLLPPTTPKSRRSEVFLSPSPRLRSPPTAARRSTGERPIREISHTLRTRLNYALVKLQNGWTDKTLPELETELAPAVQTPPRRYHNRFPDSADAGTSAHTAFLQALGGHPPREEATAVETLMLLSSPTKKQQHRPVPATSAGEPTDETEPESDTEVETS
As to B1, the binding result was “binds”.

The record behind these values is paper doi:10.1101/2020.04.20.033787 (bioRxiv, 2020).
